From patent US20260201020A1, “METHODS FOR EXPRESSION OF FUSION-FREE BOVINE ULTRALONG CDR3 SCAFFOLD” (priority 2022, published 2026)
Read-outs that look alike come from different tables or passages of the source.

How the values were obtained:
[1] = biological target: SARS-CoV-2 Spike RBD (SARS-CoV-2), P0DTC2
[2] = biological target: SARS-CoV-2 Spike RBD (SARS-CoV-2), P0DTC2; remark: listed apart in the source
[3] = biological target: SARS-CoV-2 Spike RBD (SARS-CoV-2), P0DTC2; remark: listed apart in the source
[4] = biological target: SARS-CoV-2 Spike RBD (SARS-CoV-2), P0DTC2; remark: listed apart in the source
[5] = biological target: SARS-CoV-2 Spike RBD (SARS-CoV-2), P0DTC2; remark: listed apart in the source
[6] = biological target: SARS-CoV-2 Spike RBD (SARS-CoV-2), P0DTC2; remark: listed apart in the source
[7] = biological target: SARS-CoV-2 Spike RBD (SARS-CoV-2), P0DTC2; remark: listed apart in the source
[8] = biological target: SARS-CoV-2 Spike RBD (SARS-CoV-2), P0DTC2; remark: listed apart in the source
[9] = biological target: SARS-CoV-2 Spike RBD (SARS-CoV-2), P0DTC2; remark: listed apart in the source
[10] = biological target: SARS-CoV-2 Spike RBD (SARS-CoV-2), P0DTC2; remark: listed apart in the source
[11] = biological target: SARS-CoV-2 Spike RBD (SARS-CoV-2), P0DTC2; remark: listed apart in the source
[12] = biological target: SARS-CoV-2 Spike RBD (SARS-CoV-2), P0DTC2; remark: listed apart in the source
[13] = biological target: SARS-CoV-2 Spike RBD (SARS-CoV-2), P0DTC2; remark: listed apart in the source
[14] = biological target: SARS-CoV-2 Spike RBD (SARS-CoV-2), P0DTC2; remark: listed apart in the source
[15] = biological target: SARS-CoV-2 Spike RBD (SARS-CoV-2), P0DTC2; remark: listed apart in the source
[16] = biological target: SARS-CoV-2 Spike RBD (SARS-CoV-2), P0DTC2; remark: listed apart in the source
[17] = biological target: SARS-CoV-2 Spike RBD (SARS-CoV-2), P0DTC2; remark: listed apart in the source
[18] = biological target: SARS-CoV-2 Spike RBD (SARS-CoV-2), P0DTC2; remark: listed apart in the source
[19] = biological target: SARS-CoV-2 Spike RBD (SARS-CoV-2), P0DTC2; remark: listed apart in the source
[20] = biological target: SARS-CoV-2 Spike RBD (SARS-CoV-2), P0DTC2; remark: listed apart in the source
[21] = biological target: SARS-CoV-2 Spike RBD (SARS-CoV-2), P0DTC2; remark: listed apart in the source
[22] = biological target: SARS-CoV-2 Spike RBD (SARS-CoV-2), P0DTC2; remark: listed apart in the source
[23] = biological target: SARS-CoV-2 Spike RBD (SARS-CoV-2), P0DTC2; remark: listed apart in the source
[24] = biological target: SARS-CoV-2 Spike RBD (SARS-CoV-2), P0DTC2; remark: listed apart in the source
[25] = biological target: SARS-CoV-2 Spike RBD (SARS-CoV-2), P0DTC2; remark: listed apart in the source
[26] = biological target: SARS-CoV-2 Spike RBD (SARS-CoV-2), P0DTC2; remark: listed apart in the source
[27] = biological target: SARS-CoV-2 Spike RBD (SARS-CoV-2), P0DTC2; remark: listed apart in the source

B1: R2G3-His (peptide)
chain: GGGGAMGSEGDKTCPDGYEHTCGCIGGCGCKRSACIGALCCQASLGGWLSDGETYTGGGGSGGGGSHHHHHH
modifications: not checked
B1 showed an Adjusted Binding Rate [1] of 7.34 nm/s, an Adjusted Binding Rate [2] of 7.1 nm/s and an Adjusted Binding Rate [3] of 3.79 nm/s. It also gave an Adjusted Binding Rate [4] of 2.44 nm/s, an Adjusted Binding Rate [5] of 6.36 nm/s and an Adjusted Binding Rate [6] of 4.91 nm/s. The Adjusted Binding Rate [7] was 2.88 nm/s, the Adjusted Binding Rate [8] was 5.39 nm/s and the Adjusted Binding Rate [9] was 7.3 nm/s. The Adjusted Binding Rate [10] was 4.4 nm/s, the Adjusted Binding Rate [11] was 8.31 nm/s and the Adjusted Binding Rate [12] was 31.9 nm/s. For the same binder, the Adjusted Binding Rate [13] was 19.4 nm/s, the Adjusted Binding Rate [14] was 3.35 nm/s and the Adjusted Binding Rate [15] was 2.12 nm/s. It also gave an Adjusted Binding Rate [16] of 6.42 nm/s, an Adjusted Binding Rate [17] of 32.8 nm/s and an Adjusted Binding Rate [18] of 4.3 nm/s. It also gave an Adjusted Binding Rate [19] of 12.5 nm/s, an Adjusted Binding Rate [20] of 7.24 nm/s and an Adjusted Binding Rate [21] of 34.6 nm/s. It also gave an Adjusted Binding Rate [22] of 7.41 nm/s, an Adjusted Binding Rate [23] of 22 nm/s and an Adjusted Binding Rate [24] of 3.73 nm/s. The Adjusted Binding Rate [25] was 6.47 nm/s, the Adjusted Binding Rate [26] was 9.51 nm/s and the Adjusted Binding Rate [27] was 34 nm/s.
